± gives the standard deviation.
Test: protein stability index of a GFP-peptide fusion (GPS, HEK-293T) (PSI 1-6); higher = more stable
[1] = treatment: DMSO, c terminus: a fixed tail appended
[2] = treatment: MLN4924 1 uM, 8 h, c terminus: a fixed tail appended
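Further: 24-mer peptide tiles fused after GFP, lentivirally expressed, FACS-sorted into six equal bins by GFP/DsRed ratio, decoded by Illumina sequencing, PSI is the read-weighted mean bin number.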

Row | Sequence | protein stability index [1] | protein stability index [2] | protein stability index (treatment: DMSO, c terminus: native) | protein stability index (treatment: MLN4924 1 uM, 8 h, c terminus: native)
1 | AYSLNKIHAYNLGTNAWEEIATKP [KLHDC10] | 2.56 ± 0.39 | 2.79 ± 0.57 | – | –
2 | CFARKSQLTGHQRIHSGEEPHKCP [ZNF449] | 3.64 ± 0.1 | 4.01 ± 0.18 | – | –
3 | CFKNWDGSPVSSWILLAESNSADD [OAS1] | 3.04 ± 0.24 | 3.38 ± 0.4 | – | –
4 | CGERLSLGLSRAQPVQSKPQKASA [PDLIM7] | 3.85 ± 0.38 | 4.06 ± 0.33 | – | –
5 | CGTPEYLAPEVIQSKGHGRAVDWW [PRKX] | 2.72 ± 0.54 | 2.45 ± 0.15 | – | –
6 | CHKYDRNIQVTGSAALFYLTNSEY [ZER1] | 2.28 ± 0.34 | 1.97 ± 0.23 | – | –
7 | CIDIVIRHVAPIPSHYDVQDRFRI [MOSPD3] | 2.77 ± 0.61 | 2.93 ± 0.55 | – | –
8 | CINIPGSYVCRCKQGYILNSDQTT [MATN2] | 2.43 ± 0.17 | 2.4 ± 0.35 | – | –
9 | CKLQEQLEATVKKLEESKQLLKNN [SASS6] | 3.7 ± 0.15 | 3.47 ± 0.26 | – | –
10 | CLPAGPRVYFLKGGYETFYSEYPE [DUSP5] | 2.29 ± 0.22 | 2.28 ± 0.31 | – | –
11 | CMCTVGERLYVIGGNHFRGTSDYD [KLHL13] | 1.95 ± 0.17 | 2.38 ± 0.23 | – | –
12 | CMFQEHKNHSTVTVEEAKAEKETE [TRIM29] | 5.52 ± 0.22 | 5.36 ± 0.24 | – | –
13 | CMSIVTSMTAGVSEREANDALNAY [INTS3] | 3.41 ± 0.3 | 3.49 ± 0.21 | – | –
14 | CPLTPGPGKALGPAATMAVELHYE [C2CD2L] | 3.67 ± 0.14 | 3.76 ± 0.28 | – | –
15 | CPVWDIFDSDWYTSRNLIGGADII [RHOBTB3] | 3.26 ± 0.5 | 3.55 ± 0.26 | – | –
16 | CRKWNQMMYSAELWRYRTITFSGR [FBXO39] | 2.41 ± 0.28 | 2.15 ± 0.37 | – | –
17 | CRLGYGCGYEGCRYGCGHRGCGDG [KRTAP19-2] | 3.01 ± 0.46 | 3.11 ± 0.41 | – | –
18 | CRVPNSGKDEIEAAVKAAREAFPS [ALDH8A1] | 4.65 ± 0.27 | 4.54 ± 0.36 | – | –
19 | CSELNKLCQHFEAVHSGTPVTNNL [SPACA9] | 2.95 ± 0.47 | 2.97 ± 0.24 | – | –
20 | CSLYENDCIFDKFECAWNGSDSVI [PPP2R2C] | 2.21 ± 0.17 | 2.17 ± 0.15 | – | –
21 | CSNSQEHGAHKHHPIEEAAEEHRE [TRIM43] | 5.51 ± 0.34 | 5.37 ± 0.27 | – | –
22 | CTGTEAHISSCKLGPQVSLDPMKN [LOXL2] | 3.5 ± 0.29 | 3.81 ± 0.11 | – | –
23 | CVPVFANMSREPFSTRALVLSILH [SOAT2] | 2.22 ± 0.21 | 2 ± 0.22 | – | –

Row | Sequence | protein stability index [1] | protein stability index [2] | protein stability index (treatment: DMSO, c terminus: native) | protein stability index (treatment: MLN4924 1 uM, 8 h, c terminus: native)
24 | CYDPKGDQWNILQTPILEGRSGPG [KLHL14] | 2.53 ± 0.31 | 2.77 ± 0.43 | – | –
25 | DAFPVHRVMMASASDYFKAMFTGG [KLHL13] | 2.21 ± 0.38 | 2.26 ± 0.23 | – | –
26 | DARIGEAEAKRDAGIREAKAKQEK [FLOT1] | 5.5 ± 0.19 | 5.37 ± 0.19 | – | –
27 | DCARRILAREGVAAFYKGYVPNML [SLC25A25] | 2.12 ± 0.11 | 2.11 ± 0.29 | – | –
28 | DCMSRELVSLTSRNPDQRKESLCI [FBXO34] | 3.93 ± 0.57 | 4.11 ± 0.32 | – | –
29 | DDLETMPDDLLTTLDDTCDLFAPL [ATF4] | 5.01 ± 0.088 | 5.08 ± 0.16 | – | –
30 | DEEKQEYLNEYEAEKIEYNESMKA [SMARCE1] | 5.5 ± 0.17 | 5.05 ± 0.36 | – | –
31 | DEKEQLIIPQVPLFNILAKFNGIT [USP39] | 2.54 ± 0.3 | 2.57 ± 0.31 | – | –
32 | DFDDEKILIQHQKAKHFKCHICHK [ZNF207] | 2.85 ± 0.31 | 3.31 ± 0.19 | – | –
33 | DGAAYIGNFDWVGNDFTQNAGTGL [PLD5] | 3.3 ± 0.49 | 3.44 ± 0.14 | – | –
34 | DGMSGLAGVGLSGGAAGAGWCIFV [ELAVL3] | 2.83 ± 1.1 | 2.69 ± 0.98 | – | –
35 | DGTSPLNTVERYNPQENRWHTIAP [KLHL20] | 4.12 ± 0.26 | 4.26 ± 0.35 | – | –
36 | DGVKESTESSNTTIEDEDVKARKQ [CAMK2D] | 5.59 ± 0.15 | 5.74 ± 0.09 | – | –
37 | DHFQKFLPTVGGQLGTAGQGFSYS [MYOZ1] | 2.81 ± 0.13 | 2.79 ± 0.27 | – | –
38 | DHMRKKQHRKINPKNREYDRFYVI [ZNF277] | 2.21 ± 0.29 | 2.03 ± 0.28 | – | –
39 | DKAMKKDGLVGMAIVGGMALGVAG [FIS1] | 2.89 ± 0.16 | 2.67 ± 0.12 | – | –
40 | DKEGPSPKVEYVWRNIILMSLLHL [SCD] | 3.11 ± 0.69 | 3.12 ± 0.4 | – | –
41 | DKEVRAASTEADKRLSRFDIEMSM [NLN] | 4.39 ± 0.32 | 4.74 ± 0.32 | – | –
42 | DKQRKANESKGTRESWDSAKKLPP [ELOA2] | 5.11 ± 0.19 | 5.06 ± 0.19 | – | –
43 | DKTPVLLTDYPVDLDEIAYFTWAS [MYORG] | 2.64 ± 0.36 | 2.86 ± 0.4 | – | –
44 | DLDAWSILIREAQNQPIDKARKTY [CSTF3] | 2.8 ± 0.34 | 3.04 ± 0.66 | – | –
45 | DLSRLVNCLTGEGEDTRLSASEMK [CIB1] | 3.5 ± 0.38 | 3.86 ± 0.28 | – | –
46 | DNARLAVDDFRLKYENELALRQSV [KRT13] | 3.92 ± 0.14 | 3.86 ± 0.18 | – | –

Row | Sequence | protein stability index [1] | protein stability index [2] | protein stability index (treatment: DMSO, c terminus: native) | protein stability index (treatment: MLN4924 1 uM, 8 h, c terminus: native)
47 | DQEEIKTLERYMCSRFFIDFPDIL [TENT5C] | 2.45 ± 0.16 | 2.56 ± 0.33 | – | –
48 | DQFLEDVRLQERTSGGLLSEAPNE [NOP53] | 5.23 ± 0.13 | 5.38 ± 0.31 | – | –
49 | DQYSYSSLVMGSQTESALSKKLRA [LCOR] | 3.63 ± 0.12 | 3.54 ± 0.27 | – | –
50 | DRDKRDFVSAGAAAGVAAAFGAPI [CLCN6] | 4.12 ± 0.096 | 4.24 ± 0.19 | – | –
51 | DRDREEEENRLREELRQEWEAKQE [FAM50A] | 5.45 ± 0.5 | 5.63 ± 0.16 | – | –
52 | DRESLCGASTSCLLPVQVVTEHPL [PCDHGC5] | 4.16 ± 0.18 | 4.39 ± 0.27 | – | –
53 | DRLLVERIFAQYMVPHNLETTERM [PDS5B] | 2.29 ± 0.31 | 2.17 ± 0.086 | – | –
54 | DRLRRNWPPSFLSEFRALQFSLML [SPNS1] | 2.65 ± 0.6 | 2.31 ± 0.51 | – | –
55 | DRPMFMLQCAMEENCLSASAAQTD [LOXL2] | 2.38 ± 0.52 | 1.94 ± 0.19 | – | –
56 | DRQELTYQELLRVCCCELGVNPDQ [ANKRD40] | 3.24 ± 0.24 | 3.34 ± 0.36 | – | –
57 | DSACDESSCIPKAFGNPKFALQGL [IRX6] | 3.62 ± 0.24 | 3.6 ± 0.23 | – | –
58 | DSGQYWPSIYHTMASPCSAMAYHH [WDFY1] | 2.34 ± 0.2 | 2.38 ± 0.13 | – | –
59 | DTLDHIRALDRLQEVPHEGPMCDL [PPP2CA] | 4.76 ± 0.24 | 4.8 ± 0.066 | – | –
60 | DTSMDGTEPPQNPVTPLGLQNEVP [SERTAD3] | 5.4 ± 0.19 | 5.38 ± 0.34 | – | –
61 | DVALALAALDGGRSLEELTRLAFE [LPCAT4] | 2.06 ± 0.68 | 2.12 ± 0.19 | – | –
62 | DVKDKETTENENTKFEVRLLRDPA [CHGB] | 4.33 ± 0.41 | 4.7 ± 0.3 | – | –
63 | DVTLEASRESSKPRAVLKPRRVCV [PPP2R2C] | 3.68 ± 0.1 | 3.78 ± 0.21 | – | –
64 | DVVRSLLRRGASVNRTTRTNSTPL [FEM1A] | 2.75 ± 0.29 | 2.65 ± 0.27 | – | –
65 | DVYRDGTGVVEFVRKEDMTYAVRK [SRSF1] | 3.96 ± 0.26 | 4.47 ± 0.18 | – | –
66 | DWVPVESLLRPLNSLAALDLSGIQ [ZER1] | 2.42 ± 0.61 | 2.41 ± 0.49 | – | –
67 | EAAVEALELLGATYVDKKRDLLGA [FEM1A] | 3.27 ± 0.31 | 3.49 ± 0.21 | – | –
68 | EADYEDDSKIAFLMQLQDIQYLTE [IQUB] | 3.3 ± 0.2 | 3.38 ± 0.57 | – | –
69 | EAFCHANCSGPAPAAKPDPDGGRA [P3H4] | 4.82 ± 0.15 | 4.79 ± 0.19 | – | –

Row | Sequence | protein stability index [1] | protein stability index [2] | protein stability index (treatment: DMSO, c terminus: native) | protein stability index (treatment: MLN4924 1 uM, 8 h, c terminus: native)
70 | EAHFMLQVADINDNPPTFSQVSYF [PCDHGA10] | 2.34 ± 0.41 | 2.33 ± 0.25 | – | –
71 | EAINFCRGLGSQASTVTEIVKQQD [ACSBG2] | 4.12 ± 0.11 | 4.11 ± 0.18 | – | –
72 | EASERFAAGYIQCMHEVHTFVSTC [HES6] | 2.21 ± 0.23 | 2 ± 0.36 | – | –
73 | EDHNENGHTPLMEAGSAGHVEVAR [ANKRD17] | 5.63 ± 0.12 | 5.36 ± 0.12 | – | –
74 | EDPSQQFLQQSLERVYSLQHLDPQ [INTS4] | 4.18 ± 0.17 | 4.42 ± 0.23 | – | –
75 | EDQEGSPPETSLPYKWVVEAANLL [MYBL2] | 3.96 ± 0.18 | 3.915 ± 0.031 | – | –
76 | EDQGRTRKRKQSGHSPARAGKQRM [DDIT3] | 4.96 ± 0.27 | 4.96 ± 0.089 | – | –
77 | EDQYQFSYRAALEYLGSFDHYAT [PTPRD] | – | – | 2.61 ± 0.49 | 2.69 ± 0.34
78 | EEEPSHVTGREGFPTDAPYPTTLG [ZNF8] | 5.17 ± 0.14 | 5.17 ± 0.14 | – | –
79 | EEGESLLCLACSAGYYELAQVLLA [ANKRD17] | 2.17 ± 0.4 | 2.39 ± 0.25 | – | –
80 | EEILTLFCGAPPVTPIIVLSIINF [PHTF1] | 2.84 ± 0.26 | 2.97 ± 0.51 | – | –
81 | EELDGLCFKGELPLRAVHINLEEK [PLEKHN1] | 4.41 ± 0.26 | 4.44 ± 0.29 | – | –
82 | EELKAELVQLEDEITTLRQVLSAK [TPD52L1] | 4.34 ± 0.32 | 4.22 ± 0.28 | – | –
83 | EFYLLELMDCCLIVYHPYRPLLQY [CCNC] | 3.08 ± 1.3 | 2.98 ± 0.45 | – | –
84 | EGGVLRGSKLEKGHLRGPEIRDWR [ZSWIM9] | 3.8 ± 0.2 | 4.02 ± 0.31 | – | –
85 | EGSCYQTFRQYCGAACTCHVRNPL [RNF208] | 2.4 ± 0.37 | 2.6 ± 0.2 | – | –
86 | EGSYRIHVLHHGTGKWYELQDLQV [USP39] | 2.73 ± 0.69 | 2.58 ± 0.77 | – | –
87 | EHDRETRMQYAPDLMKRLRFALIP [KLHL14] | 2.77 ± 0.26 | 2.56 ± 0.16 | – | –
88 | EHRHLNPDTELKRYFGARAILGEQ [TCF25] | 3.46 ± 0.32 | 3.47 ± 0.54 | – | –
89 | EIDRSVENTLLNSQMVSTDNSLSS [MIA2] | 4.18 ± 0.35 | 4.67 ± 0.23 | – | –
